From a protein production outcome set (Wang et al. 2014) come the findings set out here.

This series in a line: label from the status in PepcDB records.

As to “MQEVHDYGIKFWSNNEFKIEKGLVKVCHGKNPSLLEIVQSVRDKGYRGPLLVRFPHLVQKQIKSLFDAFSSAIKEYQYSGAFKAVFPLKVNQMPSFVFPLVQGAKGLNYGLEAGSKSELIIAMSYTNPKAPITVNGFKDKEMIELGFIAKSMQHEITLTIEGLNELKTIIAVAKQNEFLACPKIGIRIRLHSTGTGVWAKSGGINSKFGLSSTEVLEAMRLLEENDLLEHFHMIHFHIGSQISDISPLKKALREAGNLYAELRKMGAKNLNSVNIGGGLAVEYTQHKHHQDKNYTLEEFSADVVFLLREIVKNKQEIEPDIFIESGRYISANHAVLVAPVLELFSHEYNEKSLKIKENNNPPLIDEMLDLLANINEKNAIEYLHDSFDHTESLFTLFDLGYIDLIDRSNTEVLAHLIVKKAVQLLYVKDHNDILRIQEQVQERYLLNCSFFQSLPDYWGLRQNFPVMPLNKLDEKPTRSASLWDITCDSDGEIAFDSTKPLFLHDIDIDEEEYFLAFFLVGAYQEVLGMKHNLFTHPTEFSVVFDEKGDYEVEDICEAQTILDVLDDLDYDTKEIERLLKQKIEDNNQLDMEEKKEIMGRLYVMLSENGYLRTIS”, the protein production entry is “failed”.

Turning to “MQFFTSDTHFFHKDLLGDSDFAPRPFASVDEMNQTIIDNWNARVAETDTVYHLGDIALYFTKPAIKSDEAVFNVLSQLNGHLELIKGNHDSRALFKYLAAHNFSDHGQPKFAFHDVGALIKYDHRQYYLTHYPMMLGIVNQIINLHGHIHHYAVPVKENINVGVDTPEQRYLTTSVPFGTPFSPTEIEQMVTGKAQEFREKQLEHHHHHH”, the protein production entry is on record as “failed”.

On to “MQFKNTPQRYGVVSAALHWLTALVVYGMFALGLWIVTLSYYDGWYHQAPEIHKSIGILLMMALIVRIIWRLYSPPPVALTSYSRLTRASAAAGHLLLYLLLFAIIISGYLISTADGKPISVFSWFEIPATLTDAGAQADIAGTLHLWFAWSLVIISLSHGVMALKHHFIDKDDTLKRMTGMSSSDYGAQK”, for which the protein production entry was “failed”.

As for “MQGKKFISPGAWFSMNYPSDWNEFEDGEGSFLFYNPDVWTGNFRISAFKGNASYGKDAIRQELKENDSASLVKIGTWDCAYSKEMFQEEGTYYTSHLWITGTGNIAFECSFTVPKGGSAKEAEEVIATLEARKEGEKYPAELIPVRLSEIYQINEGYEWVVSTVKQELKKDFQGVEEDLEKIQQVIDSGKISPKKKDEWLAIGITVCAILTNEVEGMEWKTLIDGNREVPVLEYQGRTIDPMKIAWSKVKAGQPCNIAEAYQSAIDHH”, the protein production entry is “not failed”.

Consider “MQHTEERELKKRLMNTARTVSEMTEVKEALARKKQTEAVRHAVEEIRMINEADYIVVMDMNHIRYTHPVSTSIGKKSEGADEEAAFAEHIYFSEAKGEIGTAVRAFYPVKDQDLNQIGVVLVGKTLPGIADILLHLKRDI”, for which the protein production result was “failed”.

“MQIDHGSRQPYYAQIVTGIEQDIAHGVLQSGEQLPSVREMARQHLLNPNTVSKAYKRLETQQIIETVPGKGTYVKVVDSTLFRQELREQFTQIVRLAGQRGVSIAELHGWLDQMGEK”: the protein production result is “failed”.

As for “MQIPHGELRTLTYHSNALKSERQMYVWTPPGYSESSKPLPVLYFYHGFGDTGASAVVQGRIPQMMDNLLAEKKIEPMLVVIPDTETDVPGIIPEEYPPQERRKVFYPRNALAADRELIHDIIPAIGKRFNVRQDANGRALAGLSQGGYQALVSGMSHLDHFGWLATFSGVTTETVPNMAVAAQLERPEQINQQLKNLTVVIGETDNITGKDIAGLKTMLEQKNIRFDYTHYPNLGHEMDVWRPAYSEFVQKLFKLEHHHHHH”, the protein production result was “not failed”.

Regarding “MQIQQMLENRIEELEMKIAFQEQLLDELNHALVQQQFDIDKMQVQLRYMANKLKDFQSSNIASQSEETPPPHY”, the protein production result is listed as “not failed”.

Take “MQIRLAFPNEIDQIMLLIEEARAEIAKTGSDQWQKEDGYPNRNDIIDDILNGYAWVGIEDGMLATYAAVIDGHEEVYDAIYEGKWLHDNHRYLTFHRIAISNQFRGRGLAQTFLQGLIEGHKGPDFRCDTHEKNVTMQHILNKLGYQYCGKVPLDGVRLAYQKIKEKGETSIYREIDERNPM”: the protein production entry is “not failed”.

Regarding “MQKDKILKKIIVLCFFIFYNFNFFGLAVPSLSGPVVDKAGILSRSEFEKIENFLLDLDQKSKVQIAVLIIPSLEGESIEDYSMQVAEEWKLGDKEKDSGALLVVAVKDKKLRIEVGYGLEENLTDSRSGQIIRNFIAPQFRSGNYGEGIYDGIKAMAAYASEDESLLKEIAVSDEDDEGGFPQALLFFLFVYLMISKFSPGGLFWIFYLLSRSGRAGRSFNGRSSSRGSFFGGSIGRSSGRGFSGGGFSGGGGSFGGGGASGGW”, the protein production result is listed as “failed”.

For the sequence “MQKKTVGLLLASAGPFLWGSSGTVAQHLFDTTTISPLWLVAVRMLVSGGLLILYGFSRRLPVMVVFHDWRATVRLIVFSLFGMAGVQLTYFMAISTGNAAMAAILQFLSPVMIIIFITATTWQLPGKVDVISVVSAIAGTVLIVTEGHTDSLALPVIAIIWGLLAAVGATIYTLMPTKLLKVYGATPIVGWSMLIGGGLVLVGTGAWHHSPQLTWVAWGQVGFVVIFGTMLAYLFFLQSLEYILPTTASVLGAIEPLAATILSVLFLHVHFNWVGLIGAIMIVGVTILQFAATRANQFVSK”, the protein production result is given as “failed”.

For “MQKQAELYRGKAKTVYSTENPDLLVLEFRNDTSAGDGARIEQFDRKGMVNNKFNYFIMSKLAEAGIPTQMERLLSDTECLVKKLDMVPVECVVRNRAAGSLVKRLGIEEGIELNPPLFDLFLKNDAMHDPMVNESYCETFGWVSKENLARMKELTYKANDVLKKLFDDAGLILVDFKLEFGLYKGEVVLGDEFSPDGSRLWDKETLEKMDKDRFRQSLGGLIEAYEAVARRLGVQLD”, the protein production entry is given as “failed”.

For the sequence “MQKRAYLLIAVSGSLWGTIGIFVRELYGLGFSTLQIVTMRVFSAAVIMLLYLLFTKPELLKIRFRDSLYFVGTGILSIVFFNLCYFITIRETSIAIAVTLLYTAPAFVAILSRIIFRESLDAKKLFSLGLTLTGCAFVTGYLPELGNSPSITLPWLLTGLGAGFGYALYSIFGKVALKKYDTVTITAYTFFFASLALLPLVSFETSGEAFSTGSFWTYLIGLGFFPTVLAYLLYTKGLEEVESSRAAIVATVEPVVATFAGFFFFREIVSGWQLAGILFVLAGVVLIQERK”, the protein production result is on record as “failed”.

For the sequence “MQKTAFIWDLDGTLLDSYEAILSGIEETFAQFSIPYDKEKVREFIFKYSVQDLLVRVAEDRNLDVEVLNQVRAQSLAEKNAQVVLMPGAREVLAWADESGIQQFIYTHKGNNAFTILKDLGVESYFTEILTSQSGFVRKPSPEAATYLLDKYQLNSDNTYYIGDRTLDVEFAQNSGIQSINFLESTYEGNHRIQALADISRIFETK”, the protein production entry is reported as “not failed”.

With “MQKTDGLADRIWVVLVQPKYQGNIGAVARSMKNSGLSKLIIVGNRPDDEAFARSMGGRQILENAEIVDSLEEIVHRFTIVAGTSSTASSNLKRFRRLPVDPETFWKQMESQTGKVALVFGREDDGLRNEELDLCNYFIYIPGNPDYPVYNLSHAVAIVLYVMYRSYVPSDMIQHESIKPEHEVLLMSNILDI”, the protein production result is “not failed”.

Consider “MQKVTLGLLVFLAGFPVLDANDLEDKNSPFYYDWHSLQVGGLICAGVLCAMGIIIVMSAKCKCKFGQKSGHHPGETPPLITPGSAQS”, for which the protein production entry was “failed”.

As to “MQLEVILPLVAYLVVVFGISVYAMRKRSTGTFLNEYFLGSRSMGGIVLAMTLTATYISASSFIGGPGAAYKYGLGWVLLAMIQLPAVWLSLGILGKKFAILARRYNAVTLNDMLFARYQSRLLVWLASLSLLVAFVGAMTVQFIGGARLLETAAGIPYETGLLIFGISIALYTAFGGFRASVLNDTMQGLVMLIGTVVLLIGVVHAAGGLSNAVQTLQTIDPQLVTPQGADDILSPAFMTSFWVLVCFGVIGLPHTAVRCISYKDSKAVHRGIIIGTIVVAILMFGMHLAGALGRAVIPDLTVPDLVIPTLMVKVLPPFAAGIFLAAPMAAIMSTINAQLLQSSATIIKDLYLNIRPDQMQNETRLKRMSAVITLVLGALLLLAAWKPPEMIIWLNLLAFGGLEAVFLWPLVLGLYWERANAKGALSAMIVGGVLYAVLATLNIQYLGFHPIVPSLLLSLLAFLVGNRFGTSVPQATVLTTDK”, the protein production result is given as “failed”.

In the case of “MQLIRGFHNLANYDALKKGCVLTIGNFDGVHIGHQNILARLCDQSLAIGLPSVVMLFEPQPREFFAKNSQNQTASALSNAVPARLMRLRDKLKYLAEMGVDFVLCVNFNQKFAKYSAEDFITELLVKKLKVRYLSVGDDFRFGIERRGNFEMLRNAGLTHRFAVEESHTHRFDTLRISSSLIRQALQQNDLALVENLLGKPYSIRGRVAHGNKLGRTIGFPTANIMLNRLVTPIQGVFIVEVQTIYGRFNGIANVGNRPTINGTKPLLEVHIFDFNNAIYHQIIEVIFIKKIRDELKFASFTLLKEQIEKDCQQAVEFFNQLPKTK”, the protein production entry is given as “failed”.

As to “MQLNESMSTQDNSLAENYYQQAIEQWKSRDQKQALQFFKKAVRAKPSNAHYWYALAGTYHIQNKFRAARFCFEKSLNLNPNQDEIKIFLCEICYLLTDYKSVAYYAGQVDLSKIQNLEILYKVACSFKELGQLEKTGQVCSQILSLDDNFWQAKLLAAEILRIKGYSGEAKVLVLELIDQQPTVGKFWNELGINEVDLAHEDEALSAFSKAEQYVSGPEKLIIGSNYLFEFSSGLRTAKDILDAHLLWNKKYCKDQGGSFQSSKFNYLKSNDKKNIAYLSGDFKTHSVSYFIEGILENHSRDAFNIILLSNTQEDEKTKKFKELADIWIDLKLTNFETAAQIVKRLNIDILIELSGHTNGNKLNLLSSRLAPVQATYLGYFATTGLSTIDYWITDNVVHPAHTVELATETIFRLPRCYLAYTPPPQSPSIAESPVIKNGYITFGSFVASRKISDYSILLWSSILSEIPNSQLLIKNRSCVSPLYRSELIEKFSLCGISSQRINFNEAKLNLEDHLALYNKVDIALDTYPASGCTTTVEALWMGVPVLTRLGELMVSRNSASLLHALNLQNWIAETDEEYIDKGIKFTQSIEQLALLRQGMRERFMQSELYDSRGLTLHLEDFYLKALQEKLSANKEVRF”, the protein production entry is “failed”.

With “MQLSWKDIPTVAPANDLLDIVLNRTQRKTPTVIRPGFKITRIRAFYMRKVKYTGEGFVEKFEDILKGFPNINDVHPFHRDLMDTLYEKNHYKISLAAISRAKSLVEQVARDYVRLLKFGQSLFQCKQLKRAALGRMATIVKKLRDPLAYLEQVRQHIGRLPSIDPNTRTLLICGYPNVGKSSFLRCITKSDVDVQPYAFTTKSLYVGHFDYKYLRFQAIDTPGILDRPTEEMNNIEMQSIYAIAHLRSCVLYFMDLSEQCGFTIEAQVKLFHSIKPLFANKSVMVVINKTDIIRPEDLDEERAQLLESVKEVPGVEIMTSSCQLEENVMEVRNKACEKLLASRIENKLKSQSRINNVLNKIHVAQPQARDDVKRTPFIPESVKNLKKYDPEDPNRRKLARDIEAENGGAGVFNVNLKDKYLLEDDEWKNDIMPEILDGKNVYDFLDPEIAAKLQALEEEEEKLENEGFYNSDDEEEIYDGFEASEVDDIKEKAAWIRNRQKTMIAEARNRKSLKNKAIMPRSKLTKSFGKMEEHMSTLGHDMSALQDKQNRAARKNRYVERGSDVVFGDQDALTASTENGVKLRQTDRLLDGVADGSMRSKADRMAKMERRERNRHAKQGESDRHNAVSLSKHLFSGKRGVGKTDFR”, the protein production entry is given as “failed”.

With “MQLTSQAFSYGRPIPKKYSCQGVGISPPLSFSDVPREAKSLVLIVEDPDVPPSVREDGLWIHWIVYNLSPVVSNLAEGAQIFAVQGLNTAGEIGYCPPCPPDAKHRYYFYAYALDVVLSDEEGVTKEQLLEAMDGHIIATAELMGTYEKD”, the protein production result is recorded as “not failed”.
